The values that follow come from patent US20190352428A1 (Seagen, published 2019).

As a reminder, the IC50 is the concentration at which inhibition is half-maximal.

The target in experiment [1] is CD19 (UniProt P15391). In words: cell-based or functional assay.
Experiment [2] addresses CD19 (UniProt P15391). In words: competition FACS, Raji cells; unit and quantity not given.
The target in experiment [3] is CD19 (UniProt P15391). Kind of experiment: competition FACS, Raji cells; vs parent.
For experiment [4], the target named is T1, CD19 (UniProt P15391 20-556, limits assumed).
T1 construct: whole, on cells; Target of hBU12
T1 sequence (looked up): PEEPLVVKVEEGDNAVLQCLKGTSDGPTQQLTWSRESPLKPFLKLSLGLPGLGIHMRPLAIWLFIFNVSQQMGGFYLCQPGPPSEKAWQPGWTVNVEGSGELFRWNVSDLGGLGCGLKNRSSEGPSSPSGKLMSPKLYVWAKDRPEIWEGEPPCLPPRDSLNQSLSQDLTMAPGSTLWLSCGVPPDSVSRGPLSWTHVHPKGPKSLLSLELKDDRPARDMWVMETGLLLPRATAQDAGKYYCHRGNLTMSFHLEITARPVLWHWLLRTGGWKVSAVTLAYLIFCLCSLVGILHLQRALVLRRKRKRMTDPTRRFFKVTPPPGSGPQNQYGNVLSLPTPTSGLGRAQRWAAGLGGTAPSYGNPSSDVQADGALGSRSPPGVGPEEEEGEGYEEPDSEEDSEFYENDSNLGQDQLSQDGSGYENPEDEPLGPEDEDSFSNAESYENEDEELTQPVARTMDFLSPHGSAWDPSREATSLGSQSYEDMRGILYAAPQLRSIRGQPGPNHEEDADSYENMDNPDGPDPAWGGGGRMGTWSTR
Kind of experiment: FACS competition, Raji cells; fold vs hBU12ec. Here is the method:
(§1) To evaluate cell binding of masked antibodies, 2×10⁵ of indicated cells (Raji, Ramos, PC3, Daudi) were combined with fluorescently labeled parent antibody mixed with serial dilutions of competitor (masked antibody) in staining buffer (PBS, 2% FBS, 0.2% NaN3). Samples were incubated for 1 hour on ice and washed twice with ice-cold staining buffer. Labeled cells were examined by flow cytometry on a BD LSRII gated to exclude nonviable cells and analyzed using Flowing Software (Turku Centre for Biotechnology). The IC50 was calculated using GraphPad Prism 6.
(§2) Four antibodies (hBU12 against CD19, anti-Antigen 1 antibody against Antigen 1 (cAg-1), 1C1 against EphA2 and HuMab CD74-011 against CD74) were tested using the coiled coil blocking domains. The antibody CD74 comprises a light chain (SEQ ID NO: 1) and a heavy chain (SEQ ID NO: 2). Sequences for A3B3, A4B4, CVel, antipO, and dHLX were N-terminally fused to the light and heavy chains of the antibodies. To test for binding, FACs-based competition assays were utilized to account for high concentrations of competitor necessary to displace the parent antibody and the results are listed in Tables 2-5. Other antibodies that can be conjugated to a coiled-coil peptide are SEQ ID NOs: 3-19. SEQ ID NO: 3 is the amino acid sequence of hBU12 heavy chain variable region, and SEQ ID NO: 4 is the amino acid sequence of hBU12 light chain variable region. […]

In experiment [5] the target is T1, CD19. Kind of experiment: FACS competition, Raji cells; fold vs unmasked hBU12ec. Here is the method: as §1
(§3) Activity was tested using the hBU12 antibody, cAg-1, 1C1, HuMab-CD74-011, and an antibody against Antigen 2, designated hAg-2.

Experiment [6] has as its target T2, CD74 (UniProt P04233 1-296).
T2 construct: whole, on cells; Target of HuMab-CD74-011
T2 sequence (looked up): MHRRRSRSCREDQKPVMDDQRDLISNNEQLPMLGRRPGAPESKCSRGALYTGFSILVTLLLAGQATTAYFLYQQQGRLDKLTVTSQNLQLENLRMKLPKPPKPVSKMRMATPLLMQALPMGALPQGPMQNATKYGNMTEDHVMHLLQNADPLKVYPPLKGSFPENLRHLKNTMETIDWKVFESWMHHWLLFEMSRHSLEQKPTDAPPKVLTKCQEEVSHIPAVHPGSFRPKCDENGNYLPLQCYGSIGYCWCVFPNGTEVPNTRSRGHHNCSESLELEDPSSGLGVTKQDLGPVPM
Kind of experiment: FACS competition, Daudi cells; fold vs unmasked HuMab-CD74-011. The protocol: as §1, §3

The target of experiment [7] is T1, CD19. Kind of experiment: cell-based or functional assay.
For experiment [8], the target named is T1, CD19. In words: FACS competition with labeled parent hBU12, Raji cells. The protocol:
as §1, §2

B1: Cvel-1910(2) (antibody)
VH: EACGASTSVDELQAEVDQLEDENYALKTKVAQLRKKVEKLGSIPVSLRSGQVQLQESGPGLVKPSQTLSLTCTVSGGSISTSGMGVGWIRQHPGKGLEWIGHIWWDDDKRYNPALKSRVTISVDTSKNQFSLKLSSVTAADTAVYYCARMELWSYYFDYWGQGTLVTVSS
VL: EACGASTTVAQLEEKVKTLRAENYELKSEVQRLEEQVAQLGSIPVSLRSGEIVLTQSPATLSLSPGERATLSCSASSSVSYMHWYQQKPGQAPRLLIYDTSKLASGIPARFSGSGSGTDFTLTISSLEPEDVAVYYCFQGSVYPFTFGQGTKLEIKR
modifications: PBD drug-linker on the engineered cysteine at position 239 of the heavy chain constant region
With B1, in experiment [1], the Cytotoxicity Data Fold Change, Ramos cells was 1320 fold and the Cytotoxicity Data IC50 (ng/mL), Ramos cells amounted to 100 ng/mL. Moreover, the Binding Data in experiment [2] is more than 600. The Binding Data (fold decrease per paragraph 159) in experiment [3] was more than 160 fold.

B2: Cvel hBU12ec (antibody)
VH: EACGASTSVDELQAEVDQLEDENYALKTKVAQLRKKVEKLGSIPVSLRSGQVQLQESGPGLVKPSQTLSLTCTVSGGSISTSGMGVGWIRQHPGKGLEWIGHIWWDDDKRYNPALKSRVTISVDTSKNQFSLKLSSVTAADTAVYYCARMELWSYYFDYWGQGTLVTVSS
VL: EACGASTTVAQLEEKVKTLRAENYELKSEVQRLEEQVAQLGSIPVSLRSGEIVLTQSPATLSLSPGERATLSCSASSSVSYMHWYQQKPGQAPRLLIYDTSKLASGIPARFSGSGSGTDFTLTISSLEPEDVAVYYCFQGSVYPFTFGQGTKLEIKR
notes: the linker/protease site is not restated for this antibody; S239C constant region
As for B2, the “Fold Change” value in experiment [4] is more than 300 fold. Besides, the “fold decrease in binding” value in experiment [5] was more than 300 fold.

B3: CVel HuMab-CD74-011 (antibody)
heavy: EACGASTSVDELQAEVDQLEDENYALKTKVAQLRKKVEKLGSIPVSLRSGQVQLVESGGGVVQPGRSLRLSCAASGFTFSSYGMHWVRQAPDKGLEWVAVIWYDGSNKYYADSVKGRFTISRDNSKNTLYLQMNSLRAEDTAVYYCARGGTLVRGAMYGTDVWGQGTTVTVSS
light: EACGASTTVAQLEEKVKTLRAENYELKSEVQRLEEQVAQLGSIPVSLRSGDIQMTQSPSSLSASVGDRVTITCRASQGISSWLAWYQQKPEKAPKSLIYAASSLQSGVPSRFSGSGSGTDFTLTISSLQPEDFATYYCQQYNSYPLTFGGGTKVEIK
notes: not restated for this antibody
For the molecule B3, in experiment [6], the “fold decrease in binding” value worked out at 26 fold.

B4: hBU12ec-1910(2) (antibody, V domains shown)
VH: QVQLQESGPGLVKPSQTLSLTCTVSGGSISTSGMGVGWIRQHPGKGLEWIGHIWWDDDKRYNPALKSRVTISVDTSKNQFSLKLSSVTAADTAVYYCARMELWSYYFDYWGQGTLVTVSS
VL: EIVLTQSPATLSLSPGERATLSCSASSSVSYMHWYQQKPGQAPRLLIYDTSKLASGIPARFSGSGSGTDFTLTISSLEPEDVAVYYCFQGSVYPFTFGQGTKLEIKR
modifications: PBD drug-linker on the engineered cysteine at position 239 of the heavy chain constant region
For the molecule B4, the “Cytotoxicity Data IC50 (ng/mL), Ramos cells” value in experiment [7] came out at 0.1 ng/mL.

B5: hBU12ec (antibody, V domains shown)
VH: QVQLQESGPGLVKPSQTLSLTCTVSGGSISTSGMGVGWIRQHPGKGLEWIGHIWWDDDKRYNPALKSRVTISVDTSKNQFSLKLSSVTAADTAVYYCARMELWSYYFDYWGQGTLVTVSS
VL: EIVLTQSPATLSLSPGERATLSCSASSSVSYMHWYQQKPGQAPRLLIYDTSKLASGIPARFSGSGSGTDFTLTISSLEPEDVAVYYCFQGSVYPFTFGQGTKLEIKR
notes: Anti-CD19 antibody; also called parent antibody
Regarding B5, in experiment [8], the IC50 is 3.6 nM.
